EP2402371A1

B1: humanized anti-GPVI Fab VL1/VH1 (Fab, V domains shown)
VH: QVQLQESGPGLVAPSQSLSITCTVSGFSLTGYGVNWVRQPPSRGLEWLGMIWGDGSTDYQSTLKSRLSISKDTSKSQVFLKMNSLTTDDTARYYCARDLPMDYWGQGTSVTVSS
VL: DIQMTQSPSSLSASVGGRVTITCKASQDINKYIAWYQHKPGKGPSLLIHYTSTLQPGVPSRFSGSGSGRDYSFSISNLQPEDIATYYCLQYANLLTFGGGTKLEIKR
B2: humanized anti-GPVI Fab VL1/VH2 (Fab, V domains shown)
VH: QVQLQESGPGLVAPSQSLSITCTVSGFSLTGYGVNWVRQPPSRGLEWLGMIWGDGSTDYQSTLKSRLSISKDNSKSQVFLKMNSLTTDDTARYYCARDLPMDYWGQGTSVTVSS
VL: DIQMTQSPSSLSASVGGRVTITCKASQDINKYIAWYQHKPGKGPSLLIHYTSTLQPGVPSRFSGSGSGRDYSFSISNLQPEDIATYYCLQYANLLTFGGGTKLEIKR
B3: humanized anti-GPVI Fab VL1/VH3 (Fab, V domains shown)
VH: EVQLLESGPGLVAPSGSLSITCTVSGFSLTGYGVNWVRQPPGKGLEWLGMIWGDGSTDYQSTLKSRLSISKDNSKSQVFLKMNSLRTDDTARYYCARDLPMDYWGLGTSVTVSS
VL: DIQMTQSPSSLSASVGGRVTITCKASQDINKYIAWYQHKPGKGPSLLIHYTSTLQPGVPSRFSGSGSGRDYSFSISNLQPEDIATYYCLQYANLLTFGGGTKLEIKR
B4: humanized anti-GPVI Fab VL1/VH4 (Fab, V domains shown)
VH: QVQLQESGPGLVAPSQSLSITCTVSGFSLTYYGVNWVRQPPSRGLEWLGMIWGDGSTDYQSTLKSRLSISKDNSKSQVFLKMNSLTTDDTARYYCARDLPMDYWGQGTSVTVSS
VL: DIQMTQSPSSLSASVGGRVTITCKASQDINKYIAWYQHKPGKGPSLLIHYTSTLQPGVPSRFSGSGSGRDYSFSISNLQPEDIATYYCLQYANLLTFGGGTKLEIKR
B5: humanized anti-GPVI Fab VL1/VH5 (Fab, V domains shown)
VH: QVQLQESGPGLVAPSQSLSITCTVSGFSLTGYGVNWVRQPPSRGLEWLGMIWGDGSTDYQSTLKSRLSISKDNSKSQVFLKMNSLTTDDTARYYCARDLPMDEWGQGTSVTVSS
VL: DIQMTQSPSSLSASVGGRVTITCKASQDINKYIAWYQHKPGKGPSLLIHYTSTLQPGVPSRFSGSGSGRDYSFSISNLQPEDIATYYCLQYANLLTFGGGTKLEIKR
B6: humanized anti-GPVI Fab VL2/VH2 (Fab, V domains shown)
VH: QVQLQESGPGLVAPSQSLSITCTVSGFSLTGYGVNWVRQPPSRGLEWLGMIWGDGSTDYQSTLKSRLSISKDNSKSQVFLKMNSLTTDDTARYYCARDLPMDYWGQGTSVTVSS
VL: DIQMTQSPSSLSASVGGRVTITCKASQDINKYIAWYQHKPGKGPSLLIHYTSTLQPGVPSRFSGSGSGRDYSFSISNLQPEDIATYYCLQYAHLLTFGGGTKLEIKR
B7: humanized anti-GPVI Fab VL3/VH2 (Fab, V domains shown)
VH: QVQLQESGPGLVAPSQSLSITCTVSGFSLTGYGVNWVRQPPSRGLEWLGMIWGDGSTDYQSTLKSRLSISKDNSKSQVFLKMNSLTTDDTARYYCARDLPMDYWGQGTSVTVSS
VL: DIQMTQSPSSLSASVGGRVTITCKASQDINKYIAWYQHKPGKGPSLLIHYTSTLQPGVPSRFSGSGSGRDYSFSISNLQPEDIATYYCLQYALLLTFGGGTKLEIKR
B8: humanized anti-GPVI Fab VL3/VH4 (Fab, V domains shown)
VH: QVQLQESGPGLVAPSQSLSITCTVSGFSLTYYGVNWVRQPPSRGLEWLGMIWGDGSTDYQSTLKSRLSISKDNSKSQVFLKMNSLTTDDTARYYCARDLPMDYWGQGTSVTVSS
VL: DIQMTQSPSSLSASVGGRVTITCKASQDINKYIAWYQHKPGKGPSLLIHYTSTLQPGVPSRFSGSGSGRDYSFSISNLQPEDIATYYCLQYALLLTFGGGTKLEIKR

These binders were tested against extracellular domain of human GPVI (human) (UniProt Q9HCN6) (assay: SPR (Biacore 3000), human GPVI immobilised by amine coupling, Fab as analyte).

**Q.** How did the Kd turn out when B1 was run?
**A.** 0.4 nM

**Q.** What about the koff of the same binder?
**A.** 4e-05 s⁻¹

**Q.** And the kon?
**A.** 111000 M⁻¹ s⁻¹

**Q.** For B2, which Kd is on record?
**A.** 0.2 nM

**Q.** What about the koff of the same binder?
**A.** 3e-05 s⁻¹

**Q.** What about the kon of the same binder?
**A.** 113000 M⁻¹ s⁻¹

**Q.** Which results are given for B3?
**A.** Kd: 0.1 nM; koff: 2e-05 s⁻¹; kon: 148000 M⁻¹ s⁻¹

**Q.** With B4 as the binder, how does the Kd read?
**A.** 0.2 nM

**Q.** What about the koff of the same binder?
**A.** 2e-05 s⁻¹

**Q.** What about the kon of the same binder?
**A.** 124000 M⁻¹ s⁻¹

**Q.** Which results are given for B5?
**A.** Kd: 0.4 nM; koff: 3e-05 s⁻¹; kon: 81000 M⁻¹ s⁻¹

**Q.** For B6, which Kd is on record?
**A.** 0.3 nM

**Q.** And the koff?
**A.** 3e-05 s⁻¹

**Q.** What about the kon of the same binder?
**A.** 108000 M⁻¹ s⁻¹

**Q.** B7 was tested. Which Kd did it give?
**A.** 0.2 nM

**Q.** And the koff?
**A.** 3e-05 s⁻¹

**Q.** What about the kon of the same binder?
**A.** 132000 M⁻¹ s⁻¹

**Q.** Which Kd does the source give for B8 here?
**A.** 0.3 nM

**Q.** What about the koff of the same binder?
**A.** 4e-05 s⁻¹

**Q.** What about the kon of the same binder?
**A.** 151000 M⁻¹ s⁻¹
